Experimental data: article PMC2953525, “Subtle Alterations in PCNA-Partner Interactions Severely Impair DNA Replication and Repair” (PLoS Biology, 2010)

Key:
Msh6 = experiment: Yeast two hybrid (Y2H) analysis of PCNA-partner interaction; assay type: binding; conditions: for Binding of PCNA Mutants to Target Partners: Msh6 (Y2H): YRG2 strain, growth on selective agar plates lacking histidine, growth similar to WT PCNA denoted as 1; for Binding of PCNA Mutants to Target Partners: Msh6, fold increase or decrease (quantitative Y2H): footnote c: generation time in liquid selective media lacking histidine relative to cells expressing WT PCNA, average of at least 3 independent experiments
Description: (§1) For the Y2H assay, we used the YRG2 host strain, shown to be highly efficient in coupling the strength of protein-protein interactions with growth on media lacking histidine. Selected PCNA mutants were characterized for their ability to bind each of 12 main PCNA partners to obtain specificity profiles (Table 1, Table S1, and Figures S4–S5). […] However, in some cases a strong trade-off between the bindings of different partners was observed.
(§2) Y2H analysis was performed using the Yeast Two Hybrid Phagemid vector kit (Stratagene), following the manufacturer's instructions. The pAD-PCNA-WT/mutant plasmids were used as bait while plasmids encoding 12 different PCNA partners (Table 1 and Table S1) were used as prey. The YRG2 host strain (Stratagene) was cotransformed with pAD-PCNA WT/mutant and pBD-partner plasmids in all possible combinations using the LiAC method. Single transformants were grown in liquid SC-Leu-Trp to O.D600 10, washed twice with DDW, and diluted to an initial OD600 of 0.3. A series of 10-fold serial dilutions was then spotted onto selective SC-Leu-Trp-His plates and incubated at 30°C for 3 d. For quantitative Y2H, the generation time of the indicated mutants and their respective partners were calculated from their growth curves in liquid SC-Leu-Trp-His media. Cells were grown overnight in SC-Leu-Trp, washed twice with ddH2O, and diluted by a factor of 1∶50 into 10 ml of pre-warmed SC-Leu-Trp-His. O.D600 measurements of the cultures were taken at the indicated time; the generation time (τ) was calculated from the growth curves according to the equation ODt = OD0×2^t/τ. The generation time calculated for each culture is an average of at least 3 independent experiments.

Pol32 = experiment: as above; assay type: binding; conditions: for Binding of PCNA Mutants to Target Partners: Pol32 (Y2H): YRG2 strain, growth on selective agar plates lacking histidine, growth similar to WT PCNA denoted as 1; for Binding of PCNA Mutants to Target Partners: Pol32, fold increase or decrease (quantitative Y2H): footnote c: generation time in liquid selective media lacking histidine relative to cells expressing WT PCNA, average of at least 3 independent experiments
Description: as §1, §2

Rad27 = experiment: as above; assay type: binding
Description: as §1, §2

Rad30 = experiment: as above; assay type: binding; conditions: for Binding of PCNA Mutants to Target Partners: Rad30 (Y2H): YRG2 strain, growth on selective agar plates lacking histidine, growth similar to WT PCNA denoted as 1
Description: as §1, §2

Ung1 = experiment: as above; assay type: binding; conditions: for Binding of PCNA Mutants to Target Partners: Ung1 (Y2H): YRG2 strain, growth on selective agar plates lacking histidine, growth similar to WT PCNA denoted as 1
Description: as §1, §2

CAN1 gene = experiment: Spontaneous mutation rate, CAN1 reporter assay, fluctuation analysis; assay type: cell-based, yeast; conditions: for Spontaneous Mutation Rate Can^R (Fold Increase): Table 1, compared to the WT POL30 strain
Description: It was previously shown that PCNA contains another site of regulation (i.e. K164) that is modulated by ubiquitination or SUMOylation (Figure 1B) and that is crucial for the recruitment of TLS polymerases,[37]. To test whether the K164 regulatory site is active in the PCNA mutant strains, we examined the spontaneous mutation rate in these strains (Table 1). Increase in spontaneous mutation rate can indicate the recruitment of TLS polymerases to PCNA through K164 ubiquitination,[37]. Alternatively, these mutants can indirectly affect the spontaneous mutation rate by reducing DNA replication processivity and causing replication fork stalling, thereby leading to TLS recruitment. These mutants can also indirectly alter Pol-δ or Pol-ε proofreading leading to TLS recruitment. We measured the spontaneous mutation rate using the CAN1 reporter assay by monitoring the ability of the PCNA mutant strains to grow in the presence of canavanine, a toxic analogue of arginine. […] To examine whether Polζ, the major TLS polymerase,[37], is recruited in vivo to PCNA mutants showing increased affinity for Rad27 and Pol32 (pol30-Rad27E6 and pol30-Pol32E5, Table 1) upon K164 ubiquitination, we measured the spontaneous mutation rates of these mutant strains on the background of either mutated rev3 encoding the catalytic subunit of Polζ or mutated rad18 encoding the K164 ubiquitin ligase or K164R mutation (Figure 7, Table 2).
(§3) Novel haploids containing PCNA mutants were generated using the plasmid shuffling method. Briefly, a pol30::KanMX magic marker heterozygote diploid strain BY4743 (Open Biosystem) was transformed with plasmid pRS316-POL30. Following dissection of the diploid, a haploid containing the CAN+ gene and plasmid pRS316-POL30 as a sole source of PCNA was generated. This host strain was transformed with selected pRS315-pol30 mutants, plated on SC-Ura-Leu plates, followed by replica plating to SC-Leu+5FOA plates. Haploids, containing PCNA mutants as a sole source, were further verified by plating on either SC-Leu or SC-Ura plates. For testing selected PCNA mutants, a haploid containing rad27::HYG, rad30::HYG, pol32::HYG, msh6::HYG, or ung1::HYG were generated using plasmid pAG32 by conventional genetic approaches. Growth of the PCNA mutant strains in the presence of 120 mM HU (Toronto Research Chemicals) or 0.02% MMS (Sigma) was performed as described. To examine the effects of partner overexpression on pol30 mutant strains, these strains were transformed with various plasmids containing GST-tagged PCNA partner encoding genes under the control of a GAL1/10 inducible promoter, as previously described. Overnight cultures were plated in serial dilutions on SC-Ura containing either glucose or galactose with or without DNA-damaging agents, as described above.
The mutation rates for the different pol30 mutant strains described in this study were determined by fluctuation test analysis using the Lea and Coulson method,[48]. The different strains were plated as single colonies on SC-Leu plates and allowed to grow for 3 d at 30°C. At least 25 single colonies from each strain were excised from the plate and resuspended in 1 ml of sterile water to an O.D600 of 0.7. Appropriate dilutions of the cells were then plated on SC-Leu and SC-Leu-Arg+canavanine ([…]) to obtain the number of viable cells (Nt) and the number of canavanine-resistant cells (r), respectively. Using the Lea and Coulson method, the number of mutations (m) per colony was derived from the number of canavanine resistant-colonies (r) across parallel cultures, using the following equation: […]. The m values were then used to calculate the mutation rate, M, using the following equation: M = m/Nt, where Nt is the average number of viable cells per plating. The different M values were sorted to obtain the median. […]

yeast strains = experiment: Growth sensitivity of PCNA mutant strains to MMS and HU; assay type: cell-based; conditions: for effect of overexpression of Rad27, Rad30, Pol32, and Msh6 on growth sensitivity to DNA damaging agents: Figure S9, GAL1/10 inducible GST-tagged partners
Description: Next, we examined the sensitivity of strains containing single deletions of each of the five different partners on a WT PCNA background. […] We first examined whether the rad27 deletion can suppress the lethality of a strain containing the pol30-Rad27L1 or pol30-Rad27L2 mutants (Figure 6A). […] In addition, we examined whether rad30 deletion, ung1 deletion, and msh6 deletion can suppress the phenotypes of the pol30 mutants with increased affinity to Rad30, Ung1, and Msh6, respectively (Figure 6B–D). […] However, since the suppression of the strain phenotypes was not complete, additional factors, such as minor effects of the mutations on other PCNA-partner interactions, may play a partial role in the sensitivity phenotype of the examined pol30 mutants. […] We also examined whether overexpression of different partners can suppress the growth sensitivity of the pol30 mutants, however no suppression was observed (Figure S9).
as §3

[1] = footnote c: generation time in liquid selective media lacking histidine relative to cells expressing WT PCNA, average of at least 3 independent experiments

| Molecule | Binding of PCNA Mutants to Target Partners: Msh6 (Y2H) (Msh6) | Binding of PCNA Mutants to Target Partners: Pol32 (Y2H) (Pol32) | Binding of PCNA Mutants to Target Partners: Rad27 (Y2H) (Rad27; YRG2 strain, growth on selective agar plates lacking histidine, growth similar to WT PCNA denoted as 1) | Binding of PCNA Mutants to Target Partners: Rad30 (Y2H) (Rad30) | Binding of PCNA Mutants to Target Partners: Ung1 (Y2H) (Ung1) | Fold Increase Relative to WT (mutation rate, CAN1 locus) (CAN1 gene; Table 2) [fold] | Mutation Rate (CAN1 locus) (CAN1 gene; Table 2, median, brackets = 95% confidence interval, at least 25 independent determinations) | effect of overexpression of Rad27, Rad30, Pol32, and Msh6 on growth sensitivity to DNA damaging agents (yeast strains) | Binding of PCNA Mutants to Target Partners: Msh6, fold increase or decrease (quantitative Y2H) (Msh6) | Spontaneous Mutation Rate Can^R (Fold Increase) (CAN1 gene) [fold] | Binding of PCNA Mutants to Target Partners: Pol32, fold increase or decrease (quantitative Y2H) (Pol32) | Binding of PCNA Mutants to Target Partners: Rad27, fold increase or decrease (quantitative Y2H) (Rad27; [1]) | Binding of PCNA Mutants to Target Partners: Rad30, fold increase or decrease (quantitative Y2H) (Rad30; [1]) | Binding of PCNA Mutants to Target Partners: Ung1, fold increase or decrease (quantitative Y2H) (Ung1; [1]) | effect of msh6 deletion on spontaneous mutation rate (CAN1 gene; Figure 6D) | effect of rad27 deletion on growth sensitivity of the mutant strain (yeast strains; Figure S8, parent vs rad27-deleted strains) |
| --- | --- | --- | --- | --- | --- | --- | --- | --- | --- | --- | --- | --- | --- | --- | --- | --- |
| POL30: wild-type yeast PCNA (POL30), IDCL sequence DIDADFLKIEEL | 1 | 1 | 1 | 1 | 1 | 1 | 1.5×10^−7 [1.5, 2.2] | did not reduce the growth sensitivity | – | – | – | – | – | – | – | – |
| pol30-Msh6E6: PCNA mutant evolved for Msh6, IDCL sequence DYDKDLLKIIEL (protein, left off: Gal4 activation domain, end not stated, kept) MLEAKFEEASLFKRIIDGFKDCVQLVNFQCKEDGIIAQAVDDSRVLLVSLEIGVEAFQEYRCDHPVTLGMDLTSLSKILRCGNNTDTLTLIADNTPDSIILLFEDTKKDRIAEYSLKLMDYDKDLLKIIELQYDSTLSLPSSEFSKIVRDLSQLSDSINIMITKETIKFVADGDIGSGSVIIKPFVDMEHPETSIKLEMDQPVDLTFGAKYLLDIIKGSSLSDRVGIRLSSEAPALFQFDLKSGFLQFFLAPKFNDEE | – | 1 | – | 1 | 1 | – | – | – | 1.4 fold | 4.1 | – | – | – | – | – | – |
| pol30-Pol32E9 (protein, left off: Gal4 activation domain, end not stated, kept) MLEAKFEEASLFKRIIDGFKDCVQLVNFQCKEDGIIAQAVDDSRVLLVSLEIGVEAFQEYRCDHPVTLGMDLTSLSKILRCGNNTDTLTLIADNTPDSIILLFEDTKKDRIAEYSLKLMDNDVDSLKIIELQYDSTLSLPSSEFSKIVRDLSQLSDSINIMITKETIKFVADGDIGSGSVIIKPFVDMEHPETSIKLEMDQPVDLTFGAKYLLDIIKGSSLSDRVGIRLSSEAPALFQFDLKSGFLQFFLAPKFNDEE | 1 | – | – | 1 | 1 | – | – | – | – | 4 | 1.3 fold | – | – | – | – | – |
| pol30-79: previously studied PCNA mutant with decreased partner binding, IDCL sequence DIDADFAKAEEL (protein, left off: Gal4 activation domain, end not stated, kept) MLEAKFEEASLFKRIIDGFKDCVQLVNFQCKEDGIIAQAVDDSRVLLVSLEIGVEAFQEYRCDHPVTLGMDLTSLSKILRCGNNTDTLTLIADNTPDSIILLFEDTKKDRIAEYSLKLMDIDADFAKAEELQYDSTLSLPSSEFSKIVRDLSQLSDSINIMITKETIKFVADGDIGSGSVIIKPFVDMEHPETSIKLEMDQPVDLTFGAKYLLDIIKGSSLSDRVGIRLSSEAPALFQFDLKSGFLQFFLAPKFNDEE | – | – | – | – | – | – | – | did not reduce the growth sensitivity | 0.4 ^c fold | 2.2 | 0.3 ^c fold | 0.5 ^c fold | 0.4 ^c fold | 0.3 ^c fold | – | – |
| pol30-Msh6E2: PCNA mutant evolved for Msh6, IDCL sequence DYDRDMLKISEL (protein, left off: Gal4 activation domain, end not stated, kept) MLEAKFEEASLFKRIIDGFKDCVQLVNFQCKEDGIIAQAVDDSRVLLVSLEIGVEAFQEYRCDHPVTLGMDLTSLSKILRCGNNTDTLTLIADNTPDSIILLFEDTKKDRIAEYSLKLMDYDRDMLKISELQYDSTLSLPSSEFSKIVRDLSQLSDSINIMITKETIKFVADGDIGSGSVIIKPFVDMEHPETSIKLEMDQPVDLTFGAKYLLDIIKGSSLSDRVGIRLSSEAPALFQFDLKSGFLQFFLAPKFNDEE | – | 1 | – | 1 | 1 | – | – | – | 1.4 ^c fold | 7.3 | – | – | – | – | Suppression | only weak effect |
